Measurements from the supplement of paper PMC12042874.
± gives the uncertainty stated by the source.

test: amyloid nucleation score (Sup35N fusion, yeast selection) (log enrichment); library NNK3; higher = more nucleation; inactive = no reads after selection
Procedure, shortened: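 Peptides of 20 random codons, each fused to Sup35N, were expressed in psi-negative yeast. Cells were induced with 100 μM copper sulfate for 24 hours and grown 7 days at 30°C on medium lacking adenine and uracil, and plasmid inserts before and after selection were Illumina-sequenced. Nucleation scores are DiMSum log enrichments of output over input reads, centred on the mode score of non-aggregating sequences, and sequences under 100 input reads were excluded.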

Substance | amyloid nucleation score
EVSIKAVDWRVSDVTVARTC | -0.228 ± 0.93
VLILFVCPNFVLGSGVLIGW | inactive
RMLLICNFGIVCQPMTSLQR | 2.24 ± 0.063
PMLVALWCMGKTN | -0.521 ± 1.4
WYSTEM | inactive
GWLRAMKSIVNLF | inactive
VTVSSWASYIIVNGKWRIKC | inactive
SGATLLC | inactive
CSFGRS | inactive
TSDSMSLNFVTWVNQI | inactive
AFLSLCKLDYSYANCLVIVV | inactive
VSLKEITKLYRSIWVFLWSS | inactive
CMYKTFHFDY | inactive
IWLTWTSEYCTIFGFVLPVV | inactive
MVGGVHCLSSVLRRWAAGRR | -0.676 ± 1.7
WIVLQTSNSRLMQWGAP | 0.618 ± 0.27
ESRFCTYVSSRDYISTIQFN | inactive
RTYHSLVSSEERRWKLKHCY | inactive
FLDQLSVHMQCISLEFNFGV | 2.42 ± 0.068
LWTVNRECM | inactive
IACFMI | inactive
SQCGLTHSLVVGGSSVNTHT | inactive

Substance | amyloid nucleation score
SNTFRTIGS | inactive
LPWTLGVFGLMY | inactive
DWFSAVR | inactive
LDTYCIVDRDNRCGRNVVLY | inactive
RSRVRKRYWLTACP | inactive
NRGLWRM | inactive
SIWKISTRMQTFFCRNM | 1.46 ± 0.1
LRRFWDRIPCFCLFHRFSFY | inactive
FINRVSPYMRSNRSLVGVSS | inactive
VTFYFSYMCAKGTH | 0.53 ± 0.17
ENLSEVWLSYVDSLSIYVLS | inactive
FMVCCICGKYGMMVSC | inactive
STPWHSRAISVALDRGDRWM | inactive
SRVITDVHERVAVGGVVIWD | 0.003 ± 0.31
ALCKCALG | inactive
SIIRNKFVAMNMNSVNM | 0.831 ± 0.095
RFNMSFYQSYITSHCLVR | inactive
RVRNSCSVIGMWMLVYSRMI | inactive
CFTRLVRRGNSQIKRAPGEP | inactive
AIYVFIRLLYVNIHDTTPVR | inactive
DVYGDGCSCYSVKYTCDRCQ | inactive
GYQLRRMMQTMRMKYRISSR | inactive

Substance | amyloid nucleation score
RYNRDGMTYMSISFPRGPYL | 1.27 ± 0.12
SISQTIVCTRPRVSAMIWFC | inactive
VCKVCFVERSCVVVVNV | 1.8 ± 0.067
SWWVTGIALEHGSGLTVQVH | inactive
PQLWSMYHSGP | -0.586 ± 1.4
ISPVRRWPQLLIYAMVTGGQ | inactive
SSIVEPQQLTGGPASGRFGE | inactive
YQGNLGPHT | inactive
FSRYDRDLKGSLSGRSYFSA | inactive
IGRVNSSGVQDGSHCYECES | 0.481 ± 0.27
VYSLMGS | inactive
CEGRHKFF | inactive
VDNHAFKAFKHLGSSLMADR | inactive
LKWAV | inactive
CMFSLV | inactive
DYVWADLFCWASGSYLDGEC | inactive
MMYRSRFGLKMLPGLQPAIA | inactive
AWSWLRANSRTQFWSRGLKP | inactive
GWRSTYYECSGKSVFNAG | -0.217 ± 0.8
IGRPGVRYNLKCRGRIRG | inactive
YTLVVQTSMVVFLRLYSGRY | inactive
MVVYKNYM | inactive
